Assay results as given in PMC7480387.

Key:
[1] = tested on: T1, GST-SfbR (Streptomyces filipinensis DSM 40112), ORF:e6e403b8; assay: EMSA; details: EMSA: 100 mM HEPES pH 7.6, 10 mM KCl, 5 mM MgCl2, 1 mM DTT, 1% Tween 20, 7.8 mM glutathione, 40 ug/ml poly[d(I-C)], 5% glycerol, 30 C, 10 min; 0.005 ng/ul …
T1 sequence: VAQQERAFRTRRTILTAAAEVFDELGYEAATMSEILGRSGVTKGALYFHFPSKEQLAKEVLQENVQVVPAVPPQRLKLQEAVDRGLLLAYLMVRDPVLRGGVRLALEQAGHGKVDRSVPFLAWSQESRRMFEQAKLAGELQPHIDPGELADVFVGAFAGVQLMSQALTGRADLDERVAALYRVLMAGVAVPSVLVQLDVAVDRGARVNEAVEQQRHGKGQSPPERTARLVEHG

[2] = tested on: T2, GST-SfbR2 (Streptomyces filipinensis DSM 40112), ORF:2e1db1fa; assay: EMSA; details: EMSA: 100 mM HEPES pH 7.6, 10 mM KCl, 5 mM MgCl2, 1 mM DTT, 1% Tween 20, 7.8 mM glutathione, 40 ug/ml poly[d(I-C)], 5% glycerol, 30 C, 10 min; 0.005 ng/ul …
T2 sequence: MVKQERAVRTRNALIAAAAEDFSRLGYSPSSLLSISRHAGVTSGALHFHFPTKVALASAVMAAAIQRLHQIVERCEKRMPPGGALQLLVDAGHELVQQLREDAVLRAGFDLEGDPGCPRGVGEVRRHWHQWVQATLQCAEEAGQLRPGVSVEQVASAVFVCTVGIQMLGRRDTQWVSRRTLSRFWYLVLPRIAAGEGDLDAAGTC

## GCGTGCTGCCCAGCCGTGCTGCAAAGCCGCCGAGTACTTCGATGTCCATCTCTCTCCCCCAGATCCGTACGCGCGGGGCCCGTCAGGCACGCGCGGGGTGTGGCGTAGCTCAGGGAACTCGGGACTTGCTTGACCACCAAATTAAACAGCATGGCCGGTTCTTTCTCCAGTGGAACCCGAGGATCCGTGCCGGCGCCGCCCGCGGCCCGCGCCGCGGGGCGCGGGTCCGCGGTCGGCGTCCTCGCAGGTCTGTCCGTGTGCCGGGGTGGTGTGC (double strand) [sfb7p]
[1]
  binding: binds
[2]
  binding: binds
